What all share (experiment): FRET or BRET; two-photon FLIM-FRET in living HeLa cells co-transfected with 0.5 μg of each plasmid, 24 h post transfection; eGFP fusion as donor, mCherry or mCherry fusion as acceptor; E from the donor lifetime with and without acceptor; read at the nuclear envelope, in the cytoplasm, in the nucleus and over the whole cell
In general terms: BRET reads energy transfer from a luciferase to a nearby fluorophore.

The target in assay [1] is mCherry-Vpr (HIV-1 (strain LAI)).
In assay [2] the target is Vpr-mCherry (HIV-1 (strain LAI)).
For assay [3], the target named is R90K Vpr-mCherry (HIV-1 (strain LAI)).
In assay [4] the target is R77Q Vpr-mCherry (HIV-1 (strain LAI)).
The target of assay [5] is Q3R Vpr-mCherry (HIV-1 (strain LAI)).
Assay [6] concerns the target W54G Vpr-mCherry (HIV-1 (strain LAI)).
Assay [7] deals with I60A Vpr-mCherry (HIV-1 (strain LAI)).

In assay [1], Vpr-eGFP (natural protein) gave an FRET efficiency E (cytoplasm) of 14%, an FRET efficiency E (nuclear envelope) of 17%, an FRET efficiency E (nucleus) of 13% and an FRET efficiency E (whole cell) of 15%. Also, in assay [2], the FRET efficiency E (cytoplasm) turned out to be 23%, the FRET efficiency E (nuclear envelope) came to 27%, the FRET efficiency E (nucleus) came out at 19% and the FRET efficiency E (whole cell) amounted to 23%.

Take R90K Vpr-eGFP (natural protein): the FRET efficiency E (whole cell) in assay [3] is 18%.

As to eGFP-Vpr (natural protein), in assay [1], the FRET efficiency E (cytoplasm) was determined as 7%, the FRET efficiency E (nuclear envelope) is 13%, the FRET efficiency E (nucleus) was 6% and the FRET efficiency E (whole cell) was determined as 8%. In assay [2], the FRET efficiency E (cytoplasm) is 9%, the FRET efficiency E (nuclear envelope) came out at 13%, the FRET efficiency E (nucleus) came to 6% and the FRET efficiency E (whole cell) was determined as 9%.

The substance R77Q Vpr-eGFP (natural protein) came in with an FRET efficiency E (whole cell) in assay [4] of 22%.

On to Q3R Vpr-eGFP (natural protein), for which, in assay [5], the FRET efficiency E (whole cell) stood at 19%.

For W54G Vpr-eGFP (natural protein), in assay [6], the FRET efficiency E (whole cell) is 16%.

With I60A-Vpr-eGFP (natural protein), in assay [7], the FRET efficiency E (nucleus) was found to be 7% and the FRET efficiency E (whole cell) was 6%.
